Source: patent US20120322725A1 (INDIANA UNIVERSITY RESEARCH AND TECHNOLOGY, published 2012)
Values joined by “and” are separate entries in the source; they are usually repeats but may differ in a detail not shown here. Identical values can stand only once. Square brackets hold non-standard residues; d marks the D form. Ends that are not written are not given here. * marks the point of attachment. MCA = alpha-methylhydrocinnamic acid (2-methyl-3-phenylpropanoic acid); PLA = 3-phenyllactic acid (2-hydroxy-3-phenylpropanoic acid); PhLac = O=C(O)[C@@H](O)Cc1ccccc1; Carboxymethyl = O=C(O)C*

B1: [desHis^1, Leu^4, hCys^9(SO3^-), Phe^25, Leu^27]Glucagon-NH2 (peptide)
peptide: SQLTFTSXYSKYLDSRRAQDFVQFLLNT
HELM: PEPTIDE1{S.Q.L.T.F.T.S.[O=C([C@H](CCS(=O)(=O)O)N[*:1])[*:2]].Y.S.K.Y.L.D.S.R.R.A.Q.D.F.V.Q.F.L.L.N.T.[am]}$$$$V2.0; N-terminus assumed
SMILES: CC(C)C[C@H](NC(=O)[C@H](Cc1ccc(O)cc1)NC(=O)[C@H](CCCCN)NC(=O)[C@H](CO)NC(=O)[C@H](Cc1ccc(O)cc1)NC(=O)[C@H](CCS(=O)(=O)O)NC(=O)[C@H](CO)NC(=O)[C@@H](NC(=O)[C@H](Cc1ccccc1)NC(=O)[C@@H](NC(=O)[C@H](CC(C)C)NC(=O)[C@H](CCC(N)=O)NC(=O)[C@@H](N)CO)[C@@H](C)O)[C@@H](C)O)C(=O)N[C@@H](CC(=O)O)C(=O)N[C@@H](CO)C(=O)N[C@@H](CCCNC(=N)N)C(=O)N[C@@H](CCCNC(=N)N)C(=O)N[C@@H](C)C(=O)N[C@@H](CCC(N)=O)C(=O)N[C@@H](CC(=O)O)C(=O)N[C@@H](Cc1ccccc1)C(=O)N[C@H](C(=O)N[C@@H](CCC(N)=O)C(=O)N[C@@H](Cc1ccccc1)C(=O)N[C@@H](CC(C)C)C(=O)N[C@@H](CC(C)C)C(=O)N[C@@H](CC(N)=O)C(=O)N[C@H](C(N)=O)[C@@H](C)O)C(C)C
B2: [Lys^9]Glucagon(aa6-29)-NH2 (peptide)
peptide: FTSKYSKYLDSRRAQDFVQWLMNT-NH2
notes: also called [K^9]Glucagon(aa6-29)-NH2; peptide no
B3: [(CSA-1)^9]Glucagon(aa6-29)-NH2 (peptide)
peptide: FTSC(Carboxymethyl)YSKYLDSRRAQDFVQWLMNT-NH2
modifications: N-terminus assumed
SMILES: CSCC[C@H](NC(=O)[C@H](CC(C)C)NC(=O)[C@H](Cc1c[nH]c2ccccc12)NC(=O)[C@H](CCC(N)=O)NC(=O)[C@@H](NC(=O)[C@H](Cc1ccccc1)NC(=O)[C@H](CC(=O)O)NC(=O)[C@H](CCC(N)=O)NC(=O)[C@H](C)NC(=O)[C@H](CCCNC(=N)N)NC(=O)[C@H](CCCNC(=N)N)NC(=O)[C@H](CO)NC(=O)[C@H](CC(=O)O)NC(=O)[C@H](CC(C)C)NC(=O)[C@H](Cc1ccc(O)cc1)NC(=O)[C@H](CCCCN)NC(=O)[C@H](CO)NC(=O)[C@H](Cc1ccc(O)cc1)NC(=O)[C@H](CSCC(=O)O)NC(=O)[C@H](CO)NC(=O)[C@@H](NC(=O)[C@@H](N)Cc1ccccc1)[C@@H](C)O)C(C)C)C(=O)N[C@@H](CC(N)=O)C(=O)N[C@H](C(N)=O)[C@@H](C)O
notes: also called [C^9(SCH2COOH)]Glucagon(aa6-29)-NH2; peptide no
B4: [(CSA-2)^9]Glucagon(aa6-29)-NH2 (peptide)
peptide: FTSCYSKYLDSRRAQDFVQWLMNT
HELM: PEPTIDE1{F.T.S.[O=C(O)CCSC[C@H](N[*:1])C(=O)[*:2]].Y.S.K.Y.L.D.S.R.R.A.Q.D.F.V.Q.W.L.M.N.T.[am]}$$$$V2.0; N-terminus assumed
SMILES: CSCC[C@H](NC(=O)[C@H](CC(C)C)NC(=O)[C@H](Cc1c[nH]c2ccccc12)NC(=O)[C@H](CCC(N)=O)NC(=O)[C@@H](NC(=O)[C@H](Cc1ccccc1)NC(=O)[C@H](CC(=O)O)NC(=O)[C@H](CCC(N)=O)NC(=O)[C@H](C)NC(=O)[C@H](CCCNC(=N)N)NC(=O)[C@H](CCCNC(=N)N)NC(=O)[C@H](CO)NC(=O)[C@H](CC(=O)O)NC(=O)[C@H](CC(C)C)NC(=O)[C@H](Cc1ccc(O)cc1)NC(=O)[C@H](CCCCN)NC(=O)[C@H](CO)NC(=O)[C@H](Cc1ccc(O)cc1)NC(=O)[C@H](CSCCC(=O)O)NC(=O)[C@H](CO)NC(=O)[C@@H](NC(=O)[C@@H](N)Cc1ccccc1)[C@@H](C)O)C(C)C)C(=O)N[C@@H](CC(N)=O)C(=O)N[C@H](C(N)=O)[C@@H](C)O
notes: also called [C^9(SCH2CH2COOH)]Glucagon(aa6-29)-NH2; peptide no

Biological target: T1, glucagon receptor (UniProt P47871 26-477, limits assumed)
T1 sequence (P47871 26-477 limits assumed): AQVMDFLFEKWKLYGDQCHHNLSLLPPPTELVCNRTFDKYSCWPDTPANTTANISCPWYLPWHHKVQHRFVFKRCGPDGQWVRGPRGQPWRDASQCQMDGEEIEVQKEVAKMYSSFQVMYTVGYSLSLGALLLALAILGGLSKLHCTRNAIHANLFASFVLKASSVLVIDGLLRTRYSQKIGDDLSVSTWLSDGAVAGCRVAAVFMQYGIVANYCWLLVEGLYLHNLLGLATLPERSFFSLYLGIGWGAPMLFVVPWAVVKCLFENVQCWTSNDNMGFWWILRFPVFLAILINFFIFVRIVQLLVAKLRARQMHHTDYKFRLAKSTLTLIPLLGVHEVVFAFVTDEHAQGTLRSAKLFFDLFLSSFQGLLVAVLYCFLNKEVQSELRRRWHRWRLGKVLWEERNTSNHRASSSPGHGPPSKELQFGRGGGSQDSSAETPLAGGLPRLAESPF
Assay: cell-based or functional assay

| cAMP Induction EC50 [nM] | cAMP Inhibition IC50 [nM] | Binder |
| --- | --- | --- |
| 1610 | 4460 | B1 |

Biological target: T1, glucagon receptor
Assay: cell-based or functional assay
Remark: another data set of the same source

| cAMP (I/A)50 | cAMP pA2 | Binder |
| --- | --- | --- |
| 1730 | 6.94 | FTSDYSKYLDSRRAQDFVQWLMNT-NH2 (also called peptide no) [Glucagon(aa6-29)-NH2] |
| 1990 | 6.58 | B2 |
| 506 | 6.68 | B3 |
| 580 | 6.64 | B4 |

Biological target: T1, glucagon receptor
Assay: cell-based or functional assay
Remark: another data set of the same source

| cAMP IC50 [nM] | cAMP pA2 | Binder |
| --- | --- | --- |
| 346 | 6.94 | FTSDYSKYLDSRRAQDFVQWLMNT-NH2 (also called peptide no) [Glucagon(aa6-29)-NH2] |
| 398 | 6.58 | B2 |
| 101 | 6.68 | B3 |
| 116 | 6.64 | B4 |

Biological target: T1, glucagon receptor
Assay: cell-based or functional assay
Remark: another data set of the same source

| IC50(nM) (cAMP, inhibit 0.2 mM Glucagon) | Binder |
| --- | --- |
| 216 nM | {PLA}-TC(PEG 5 kDa)EYSKYLDSRRAQDFVQWLMNT-NH2 [[PLA6, C8(5kDaPEG), E9]Glucagon(aa6-29)-NH2] |
| 18 nM | {PLA}-TSEYSKYLDSRRAQDFVC(PEG 1.2 kDa)WLMNT-NH2 [[PLA6, E9,C24(1.2 kDaPEG)]Glucagon(aa6-29)-NH2] |
| 236 nM and 92 nM | [PhLac]TC(maleimido methoxyPEG 20 kDa)EYSKYLDSRRAQDFVQWLMNT-NH2 [[PLA6, C8(20kDaPEG), E9]Glucagon(aa6-29)-NH2] |
| 126 nM | [PhLac]TSEYSKYLDSRRAQDFVC(maleimido methoxyPEG 20 kDa)WLMNT-NH2 [[PLA6, E9, C24(20kDaPEG)]Glucagon(aa6-29)-NH2] |
| 664 nM | [PhLac]TSEYC(maleimido methoxyPEG 20 kDa)KYLDSRRAQDFVQWLMNT-NH2 [[PLA6, E9, C11(20kDaPEG)]Glucagon(aa6-29)-NH2] |
| 976 nM | C(PEG 20 kDa)FTSEYSKYLDSRRAQDFVQWLMNT-NH2 [[C5(20kDaPEG), E9]Glucagon(aa5-29)-NH2] |
| 2280 nM | C(PEG 1.2 kDa)FTSEYSKYLDSRRAQDFVQWLMNT-NH2 [[C5(1.2kDaPEG), E9]Glucagon(aa5-29)-NH2] |
| 1610 nM | C(PEG 5 kDa)FTSEYSKYLDSRRAQDFVQWLMNT-NH2 [[C5(5kDaPEG), E9]Glucagon(aa5-29)-NH2] |
| 1340 nM | C(PEG 3.4 kDa)FTSEYSKYLDSRRAQDFVQWLMNT-NH2 (also: dimer: two chains joined by 3.4 kDa PEG at Cys5) [3.4kDaPEG-dimer[C5, E9]Glucagon(aa5-29)-NH2] |

Biological target: T1, glucagon receptor
Assay: receptor binding, method not described

| IC50 [nM] | Binder |
| --- | --- |
| 1670 | FTSDYSKYLDSRRAQDFVQWLMNT-NH2 (also called peptide no) [Glucagon(aa6-29)-NH2] |
| 3240 | B2 |
| 107 | B3 |
| 146 | B4 |

Biological target: T1, glucagon receptor
Assay: receptor binding, method not described
Remark: another data set of the same source

| IC50 [nM] | Binder |
| --- | --- |
| 220 | {PLA}-TC(PEG 1.2 kDa)EYSKYLDSRRAQDFVQWLMNT-NH2 [[PLA6, C8(1.2kDaPEG), E9]Glucagon(aa6-29)-NH2] |
| 948 | {PLA}-TC(PEG 5 kDa)EYSKYLDSRRAQDFVQWLMNT-NH2 [[PLA6, C8(5kDaPEG), E9]Glucagon(aa6-29)-NH2] |
| 4.7 | {PLA}-TSEYSKYLDSRRAQDFVC(PEG 1.2 kDa)WLMNT-NH2 [[PLA6, E9,C24(1.2 kDaPEG)]Glucagon(aa6-29)-NH2] |
| 208 | [MCA]TSEYSKYLDSRRAQDFVC(maleimido methoxyPEG 20 kDa)WLMNT-NH2 [[MCA6, E9, C24(20kDaPEG)]Glucagon(aa6-29)-NH2] |
| 303 | [PhLac]TC(maleimido methoxyPEG 20 kDa)EYSKYLDSRRAQDFVQWLMNT-NH2 [[PLA6, C8(20kDaPEG), E9]Glucagon(aa6-29)-NH2] |
| 90 | [PhLac]TSEYSKYLDSRRAQDFVC(maleimido methoxyPEG 20 kDa)WLMNT-NH2 [[PLA6, E9, C24(20kDaPEG)]Glucagon(aa6-29)-NH2] |
| 776 | [PhLac]TSEYC(maleimido methoxyPEG 20 kDa)KYLDSRRAQDFVQWLMNT-NH2 [[PLA6, E9, C11(20kDaPEG)]Glucagon(aa6-29)-NH2] |
| 331 | C(PEG 20 kDa)FTSEYSKYLDSRRAQDFVQWLMNT-NH2 [[C5(20kDaPEG), E9]Glucagon(aa5-29)-NH2] |
| 1080 | C(PEG 1.2 kDa)FTSEYSKYLDSRRAQDFVQWLMNT-NH2 [[C5(1.2kDaPEG), E9]Glucagon(aa5-29)-NH2] |
| 634 | C(PEG 5 kDa)FTSEYSKYLDSRRAQDFVQWLMNT-NH2 [[C5(5kDaPEG), E9]Glucagon(aa5-29)-NH2] |
| 435 | C(PEG 3.4 kDa)FTSEYSKYLDSRRAQDFVQWLMNT-NH2 (also: dimer: two chains joined by 3.4 kDa PEG at Cys5) [3.4kDaPEG-dimer[C5, E9]Glucagon(aa5-29)-NH2] |

Biological target: T1, glucagon receptor
Assay: receptor binding (named so for the same values in Table I), method not described

| IC50 [nM] | Binder |
| --- | --- |
| 36.4 | LTFTSEYSKYLDSRRAQDFVQWLMNT-NH2 (also called peptide no) [[Leu^4, Glu^9]Glucagon(aa4-29)-NH2] |
| 1890 | FTSDYSKYLDSRRAQDFVQWLMNT-NH2 (also called peptide no) [Glucagon(aa6-29)-NH2] |
| 5780 | B2 |
| 107 | B3 |
| 146 | B4 |
